# “And” between values parts separate entries of the source, which are not always exact repeats. Equal values may be shown once.
# B1: Glutamate dehydrogenase from bovine liver (enzyme)
# chain: not shown
# notes: glutamate dehydrogenase, bovine liver; homohexamer of six identical subunits of 56-57 kDa; also called GDH; GDHfr (frozen-thawed GDH)
# B2: Glycogen phosphorylase b from rabbit skeletal muscle (enzyme, UniProt P00489 1-843, looked up)
# chain: MSRPLSDQEKRKQISVRGLAGVENVTELKKNFNRHLHFTLVKDRNVATPRDYYFALAHTVRDHLVGRWIRTQQHYYEKDPKRIYYLSLEFYMGRTLQNTMVNLALENACDEATYQLGLDMEELEEIEEDAGLGNGGLGRLAACFLDSMATLGLAAYGYGIRYEFGIFNQKICGGWQMEEADDWLRYGNPWEKARPEFTLPVHFYGRVEHTSQGAKWVDTQVVLAMPYDTPVPGYRNNVVNTMRLWSAKAPNDFNLKDFNVGGYIQAVLDRNLAENISRVLYPNDNFFEGKELRLKQEYFVVAATLQDIIRRFKSSKFGCRDPVRTNFDAFPDKVAIQLNDTHPSLAIPELMRVLVDLERLDWDKAWEVTVKTCAYTNHTVLPEALERWPVHLLETLLPRHLQIIYEINQRFLNRVAAAFPGDVDRLRRMSLVEEGAVKRINMAHLCIAGSHAVNGVARIHSEILKKTIFKDFYELEPHKFQNKTNGITPRRWLVLCNPGLAEIIAERIGEEYISDLDQLRKLLSYVDDEAFIRDVAKVKQENKLKFAAYLEREYKVHINPNSLFDVQVKRIHEYKRQLLNCLHVITLYNRIKKEPNKFVVPRTVMIGGKAAPGYHMAKMIIKLITAIGDVVNHDPVVGDRLRVIFLENYRVSLAEKVIPAADLSEQISTAGTEASGTGNMKFMLNGALTIGTMDGANVEMAEEAGEENFFIFGMRVEDVDRLDQRGYNAQEYYDRIPELRQIIEQLSSGFFSPKQPDLFKDIVNMLMHHDRFKVFADYEEYVKCQERVSALYKNPREWTRMVIRNIATSGKFSSDRTIAQYAREIWGVEPSRQRLPAPDEKIP
# notes: glycogen phosphorylase b (muscle form), rabbit skeletal muscle; dimer of two identical subunits of 97.4 kDa; also called Phb; Phbfr (frozen-thawed Phb)
# Assays:
# [1] = biological target: the molecule itself; assay: AUC; sedimentation velocity, c(M) distributions; GDH 0.2 mg/mL pre-heated 10 min at 50 °C with or without HPCD, Sorb, Tre or Bet, then cooled; run at 25 °C, 48,000 rpm, 0.1 M Na-phosphate pH 7.6, 0.01 M NaCl
# [2] = biological target: the molecule itself; assay: AUC; sedimentation velocity, c(M) distributions; Phb 0.35 mg/mL pre-heated 40 min at 48 °C with or without HPCD, Tre or Bet, cooled 2 min in ice water; run at 25 °C, 48,000 rpm, 0.03 M HEPES pH 6.8, 0.15 M NaCl
Protein,stoichiometry N [1],stoichiometry N [2]
B1,6 and 2,
B2,,2 and 4
